Source: paper PMC2846270 (Biochemical and biophysical research communications, 2010)

Target: the molecule itself
Experiment: electron microscopy

B1: Taz1pΔC (C-terminally truncated version of the Taz1 protein) (domain or fragment, S. pombe, UniProt P79005 1-556, looked up)
chain: MISVQSTETIQKVLENEGDQQFDKEVVQNSDSNIETGQISDSLTKAVEERAETESSSNLSNFTTSESESSKPAYCFNSHSQNMAEGSISIPVISHSMNVENEVSTAEGQDSRTGESENDQNAMIVRSIWDIEKASLLVNDCQNIANMAEQKVMMVSAIFSESSKDIVNPESFSERLGKETVKDLYEFNEQLTTKYGLEFRTIFFSYIRKYDAYWCLFEDLEKPLKSIQFFTGLIDLLDNTNKHLTLRSIVLDALLSADEEDSFYGDALVLFEELVIRYFGTDSNPSIDASEFILSCLPYTSLDALNVVCGQVWKSQKICDFLKSTIGNTSNSPLQLRASFPAFVNAVIHFLLEFKNVRRLERKDLSVKGMLYDSDSQQILNRLRERVSGSTAQSADEASGHESDASEDTFSERTLGLNSIDNTEISEVVSLGLVSSALDKITGLLSADNLSETVSQARDFSHTLSKSLKSRAKSLSQKEAANRSKLIAKRGDNLRREASLSSEQDDLSEDFPPVRESDEQESRSGGRSSAMRVSIERSAARSGTRRSQGNPYEGYR
B1: binds.
